According to paper PMC2835468 (Matrix biology : journal of the International Society for …, 2009):

Experiments:
Experiment in all cases: enzyme inhibition kinetics
[1] = target: T1, ADAMTS4-3 (human ADAMTS-4 deletion mutant, C-terminal FLAG-tag) (human, UniProt O75173 213-575)
T1 sequence (looked up): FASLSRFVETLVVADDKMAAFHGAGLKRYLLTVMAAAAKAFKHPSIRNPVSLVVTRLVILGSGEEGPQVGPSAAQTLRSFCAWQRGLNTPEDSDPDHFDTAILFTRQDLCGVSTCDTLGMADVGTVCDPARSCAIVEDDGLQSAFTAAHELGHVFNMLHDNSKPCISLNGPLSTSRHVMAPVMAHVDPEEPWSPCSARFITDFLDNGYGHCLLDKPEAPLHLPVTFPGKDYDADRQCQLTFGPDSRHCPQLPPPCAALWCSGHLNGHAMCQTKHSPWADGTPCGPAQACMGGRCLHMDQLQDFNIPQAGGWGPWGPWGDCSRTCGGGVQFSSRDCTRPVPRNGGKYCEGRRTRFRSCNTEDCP

[2] = target: T2, ADAMTS4-2 (human ADAMTS-4 deletion mutant, C-terminal FLAG-tag) (human, UniProt O75173 213-685)
T2 sequence (looked up): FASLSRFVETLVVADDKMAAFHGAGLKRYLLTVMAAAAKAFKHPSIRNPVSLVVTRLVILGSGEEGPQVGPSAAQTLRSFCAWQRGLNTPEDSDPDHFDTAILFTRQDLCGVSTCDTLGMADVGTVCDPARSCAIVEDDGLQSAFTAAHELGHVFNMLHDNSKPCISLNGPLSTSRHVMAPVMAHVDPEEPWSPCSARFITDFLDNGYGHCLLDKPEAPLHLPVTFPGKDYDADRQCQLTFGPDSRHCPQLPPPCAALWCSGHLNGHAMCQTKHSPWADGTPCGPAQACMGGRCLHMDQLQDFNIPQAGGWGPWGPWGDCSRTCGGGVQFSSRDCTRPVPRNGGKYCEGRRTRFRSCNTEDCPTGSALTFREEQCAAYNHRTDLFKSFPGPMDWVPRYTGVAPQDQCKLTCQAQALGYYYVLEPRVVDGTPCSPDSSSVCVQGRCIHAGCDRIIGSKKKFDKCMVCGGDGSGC

[3] = target: T3, ADAMTS4-1 (full-length human ADAMTS-4, C-terminal FLAG-tag) (human, UniProt O75173 213-837)
T3 sequence (looked up): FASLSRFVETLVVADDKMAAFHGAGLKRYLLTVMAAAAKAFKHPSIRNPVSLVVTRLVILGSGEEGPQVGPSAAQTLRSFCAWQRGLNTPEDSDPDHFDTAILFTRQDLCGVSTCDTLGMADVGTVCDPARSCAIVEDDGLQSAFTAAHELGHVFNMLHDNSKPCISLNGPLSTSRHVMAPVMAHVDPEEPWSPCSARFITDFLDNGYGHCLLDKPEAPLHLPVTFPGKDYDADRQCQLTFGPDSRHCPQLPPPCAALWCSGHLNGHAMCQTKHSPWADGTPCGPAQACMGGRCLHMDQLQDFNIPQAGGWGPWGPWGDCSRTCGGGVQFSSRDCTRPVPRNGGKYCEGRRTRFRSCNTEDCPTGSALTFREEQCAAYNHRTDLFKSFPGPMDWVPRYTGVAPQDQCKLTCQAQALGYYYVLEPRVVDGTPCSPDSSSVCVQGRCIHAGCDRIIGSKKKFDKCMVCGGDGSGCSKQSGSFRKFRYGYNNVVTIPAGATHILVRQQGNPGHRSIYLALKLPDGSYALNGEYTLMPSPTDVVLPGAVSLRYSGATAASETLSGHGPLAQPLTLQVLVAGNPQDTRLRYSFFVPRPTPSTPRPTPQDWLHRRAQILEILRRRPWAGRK

[4] = target: T4, ADAMTS4-4 (human ADAMTS-4 deletion mutant, C-terminal FLAG-tag) (human, UniProt O75173 213-519)
T4 sequence (looked up): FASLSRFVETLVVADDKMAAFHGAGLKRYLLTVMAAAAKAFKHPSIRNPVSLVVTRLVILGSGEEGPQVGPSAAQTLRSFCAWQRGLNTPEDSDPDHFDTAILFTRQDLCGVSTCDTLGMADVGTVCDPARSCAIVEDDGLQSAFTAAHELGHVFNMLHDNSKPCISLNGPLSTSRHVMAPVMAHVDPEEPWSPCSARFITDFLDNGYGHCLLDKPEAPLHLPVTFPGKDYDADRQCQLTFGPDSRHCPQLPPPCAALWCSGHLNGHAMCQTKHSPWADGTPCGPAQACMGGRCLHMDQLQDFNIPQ

Ki [1]: 0.4 nM
Ki [2]: 0.22 nM
Ki [3]: 0.22 nM
Ki [4]: 0.51 nM
B1: FLAG-tagged glycosylated human TIMP-3 (full-length tissue inhibitor of metalloproteinases 3), expressed in HEK293 (natural protein, UniProt P35625 24-211, looked up)
chain: CTCSPSHPQDAFCNSDIVIRAKVVGKKLVKEGPFGTLVYTIKQMKMYRGFTKMPHVQYIHTEASESLCGLKLEVNKYQYLLTGRVYDGKMYTGLCNFVERWDQLTLSQRKGLNYRYHLGCNCKIKSCYYLPCFVTSKNECLWTDMLSNFGYPGYQSKHYACIRQKGGYCSWYRGWAPPDKSIINATDP
modifications: glycosylated (only the 27 kDa glycosylated form remained after purification; single N-glycosylation site in the C-terminal domain)
